Measured values from patent US20110027291A1, “METHODS, SYSTEMS AND PRODUCTS FOR PREDICTING RESPONSE OF TUMOR CELLS TO A THERAPEUTIC AGENT AND TREATING A PATIENT ACCORDING TO THE PREDICTED RESPONSE” (MERRIMACK PHARMACEUTICALS, INC., priority 2008, published 2011).

What was measured:
[1] = target: T1, ErbB2 (Homo sapiens, UniProt P04626); settings: cited from earlier work
[2] = target: T1, ErbB2; assay: Lapatinib rate constants from the literature: ErbB2 (Table 13); format: binding
[3] = tested on: ErbB3 phosphorylation (pErbB3) in NCI-ADRr cells; assay: ErbB3 phosphorylation dose response curves for ErbB ligands (ELISA); format: cell-based
Procedure: (§1) For stimulation of the cells, the cells are seeded in 100 μl complete media at 35,000 cells per well in 96 well tissue culture plates and incubated overnight in a humidified atmosphere of 5% CO2, 95% air and 37 degrees Celsius. Cells are then switched to serum free media: RPMI-1640 media (Gibco) supplemented with, 2 mM L-glutamine (Gibco) and units/mL Pen-Strep (Gibco). Starved cells are incubated in a humidified atmosphere of 5% CO2, 95% air and 37 degrees Celsius for 20-24 hours prior to stimulation.
(§2) Levels of protein phosphorylation in the stimulated cells are measured by ELISA. Capture antibodies against ErbB1 (R&D Systems, AF231), ErbB2 (R&D Systems, MAB1129), ErbB3 (R&D Systems, MAB3481) and AKT (Upstate, 05-591MG) are incubated in 384 well black flat-bottom polystyrene high-binding plates (Corning, Catalog #3708) overnight at room temperature. The ELISA plates are blocked with 2% bovine serum albumin (BSA) and phosphate buffered saline (PBS) for one hour then incubated with lysates diluted in 2% BSA, 0.1% Tween-20 and PBS for two hours at room temp. In between each incubation, the plates are washed three times with 0.05% Tween-20 in PBS. ELISAs for measuring phospho-ErbB1, -ErbB2 and -ErbB3 are incubated with phospho-tyrosine horseradish peroxidase (HRP) linked monoclonal antibody (R&D Systems, HAM 1676) for two hours. ELISAs measuring phospho-AKT are incubated with primary serine 473 specific anti-phospho AKT mouse monoclonal antibody (Cell Signaling Technologies, Catalog #5102) for 2 hours, then incubated with Streptavidin-HRP(R&D Systems, Catalog #DY998) for 30 minutes. All ELISAs are visualized with SuperSignal ELISA Pico Chemiluminescent Substrate (Pierce, Catalog #37069) and luminescent signal is measured using a luminometer.

[4] = target: ErbB1 (Homo sapiens, UniProt P00533); assay: ErbB signaling computational model: BTC ligand binding parameters; settings: model parameter
From the text: (§3) The ErbB receptor signaling network model consists of three receptors (ErbB1, ErbB2, ErbB3), a receptor phosphatase, phosphatidylinositol 3-kinase (PI3K, which binds the receptors) and components of the PI3K-AKT cascade (phosphatidylinositol bisphosphate, PIP2, phosphoinositide-dependent protein kinase, PDK1, PTEN deleted from chromosome 10, PTEN, serine, threonine protein kinase also known as protein kinase B, AKT, Protein phosphatase 2A, PP2A) (see Table 8 below).
(§4) Included in the model were the ligand-induced dimerization, internalization, recycling, and degradation as described in the literature for all homo- and heterodimers (Hendriks, B. S. et al. (2003) J. Biol. Chem. 278:23343-23351; Wang, Z. et al. (1999) Mol. Biol. Cell 10:1621-1636). Receptor dimer stabilities, using the relative scale as published in Shankaran, H. et al. (2008) Biochem. Biophys. Res. Commun. 371:220-224, were implemented, where the coexpression of […] biases signaling to the cell surface and retards signal downregulation and where the simultaneous coexpression of ErbB1-3 leads to an abundance of ErbB2-ErbB3 heterodimers. Therefore, ErbB3-containing dimers internalize and degrade slower than do ErbB1 homodimers or ErbB1-ErbB2 heterodimers. Constitutive dimerization was also included, although ligand-free dimers were assumed not to trigger any downstream signaling (Yu, X. et al. (2002) Mol. Biol. Cell 13:2547-2557) and to remain at the cell surface. ErbB ligands bind with different affinities to ErbB homo- and heterodimers (Teramura, Y. et al. (2006) EMBO J. 25:4215-4222), but to reduce the number of kinetic parameters to be estimated and to describe the experimental data with the simplest model possible, we constrained the binding affinity of the ligands to ErbB homo- and heterodimers to be the same.
(§5) Many of the reaction rate parameters are unknown in the cell system we studied and therefore had to be estimated (see Table 10 below). To avoid biasing the starting point, all parameters were set to default values (Aldridge, B. B. et al. (2006) Nat. Cell. Biol. 8:1195-1203). The number of parameters estimated was limited by performing the estimation in two stages: first the model was calibrated against the experimentally observed ErbB receptor phosphorylation data; second, the parameters sensitive to AKT phosphorylation were optimized against the experimental data. Estimated values were only accepted if the parameters were constrained under multiple parameter runs using a genetic algorithm with a population size of 50 and 25 generations (Mathworks, MA). […] The normalized sensitivities of each species were integrated over the two hour stimulation, and parameters with normalized, integrated sensitivities greater than an arbitrary threshold of 1000 are listed in Table 11 below. As mentioned above, ErbB4 phosphorylation was not included into the parameter estimation because the cell line studied had barely detectable ErbB4 (see Table 3 below). ErbB4 reactions are parameterized according to ErbB3 reactions.

[5] = target: T2, ErbB1 phosphorylation (pErbB1) in NCI-ADRr cells (Homo sapiens, UniProt P00533); assay: ErbB1 phosphorylation dose response curves for ErbB ligands (ELISA); format: cell-based
T2 construct: endogenous in cells; host or cells: NCI-ADRr (ADRr) cells
Procedure: as §1, §2

[6] = target: ErbB3 (Homo sapiens, UniProt P21860); assay: ErbB signaling computational model: HRG ligand binding parameters; settings: model parameter
From the text: as §3, §4, §5

[7] = tested on: AKT phosphorylation (pAKT) in NCI-ADRr cells; assay: AKT phosphorylation dose response curves for ErbB ligands (ELISA); format: cell-based
Procedure: as §1, §2

[8] = tested on: ErbB2 phosphorylation (pErbB2) in NCI-ADRr cells; assay: ErbB2 phosphorylation dose response curves for ErbB ligands (ELISA); format: cell-based
Procedure: as §1, §2

CS(=O)(=O)CCNCc1ccc(-c2ccc3ncnc(Nc4ccc(OCc5cccc(F)c5)c(Cl)c4)c3c2)o1 [lapatinib]
Lapatinib inhibitor binding from ErbB2 or 2-3 dimers (on-rate before unit conversion) [1]: Unit conversion calculated as 2.95e3 M^−1s^−1/ | krLapatinib_2: Lapatinib inhibitor dissociation to ErbB2 or 2-3 dimers [1]: 3.83e-05 s⁻¹ | kfLapatinib_4: Lapatinib inhibitor binding to 2-2 dimers ([2]; 2-2 dimers): 3.00E−12 molecules^−1 sec^−1 | kfLapatinib_2: Lapatinib inhibitor binding from ErbB2 or 2-3 dimers ([2]; unit conversion from M^−1s^−1 /(Vmedia * Av/Num_cells)): 1.50E−12 molecules^−1 sec^−1

BTC: betacellulin, ErbB ligand which binds primarily to ErbB1
EC50 [3]: 100 nM | kf3: BTC binding to E1 [4]: 5.00 × 10^−11 molecules-1 sec-1 | kr3: BTC dissociation from E1 [4]: 0.001 s⁻¹ | kf5: BTC binding to E1 heterodimers ([4]; E1 heterodimers): 5.00 × 10^−11 molecules-1 sec-1 | kf4: BTC binding to E1 homodimers ([4]; E1 homodimers): 5.00 × 10^−11 molecules-1 sec-1 | kf129: BTC binding in the endosome ([4]; endosome): 3.8 molecules-1 sec-1 | EC50 [5]: 5.7 nM

HRG1-β: heregulin, ErbB receptor ligand which binds to ErbB3 and ErbB4
kr1: HRG dissociation from E3 [6]: 0.001 s⁻¹ | kf2: HRG binding to E3:E2 dimers ([6]; E3:E2 dimers): 5.00 × 10^−11 molecules-1 sec-1 | kr2: HRG dissociation from E3:E2 dimers ([6]; E3:E2 dimers): 0.001 s⁻¹ | kf127: HRG binding in the endosome ([6]; endosome): 3.8 molecules-1 sec-1 | kf1: HRG binding to E3 or E4 ([6]; unit conversion from 1e5M-1s-1): 5.00 × 10^−11 molecules-1 sec-1 | EC50 [3]: 9.9 nM | pErbB3 % stimulation at 5 min relative to maximum ([3]; 5 min): 100.0% | EC50 [7]: 1.9 nM | pAKT % stimulation at 5 min relative to maximum ([7]; 5 min): 100.0% | EC50 [8]: 7 nM | pErbB2 % stimulation at 5 min relative to maximum ([8]; 5 min): 43.0% | pErbB1 % stimulation at 5 min relative to maximum ([5]; 5 min): 0.0%
